PMC6302015

What was measured:
[1] = biological target: Dopamine receptor D2 (D2R) peptide (N430-R443); assay: ITC; MicroCal VP-ITC; 50 μM D2R peptide in the cell titrated with NCS-1; 25°C; 20 mM Tris-HCl pH 8.0, 150 mM NaCl, 5 mM CaCl2 and 100 μM ZnCl2; one set of sites model
[2] = biological target: Dopamine receptor D2 (D2R) peptide (N430-R443); assay: ITC; MicroCal VP-ITC; 50 μM D2R peptide in the cell titrated with NCS-1 (1 mM stock, thirty 10 μl injections); 25°C; 20 mM Tris-HCl pH 8.0, 150 mM NaCl, 5 mM CaCl2; one set of sites model
[3] = biological target: GST-tagged N-terminal fragment of GRK1 (M1-G183) (UniProt P28327); assay: pull-down; 50 μg GST-N-GRK1 immobilised on Glutathione Sepharose; 25 μM NCS-1 applied; 20 mM Tris pH 8.0, 150 mM NaCl, 1 mM DTT, 1 mM CaCl2 and 0-100 μM ZnCl2; 1 h at 4°C; bound NCS-1 detected by western blotting
Sequence of UniProt P28327 (P28327 1-183): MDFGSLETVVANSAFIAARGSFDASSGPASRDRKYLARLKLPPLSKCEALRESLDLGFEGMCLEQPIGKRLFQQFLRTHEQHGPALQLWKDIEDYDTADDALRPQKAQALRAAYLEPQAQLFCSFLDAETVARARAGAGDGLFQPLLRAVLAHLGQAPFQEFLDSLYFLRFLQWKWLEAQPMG

Neuronal calcium sensor-1 (recombinant myristoylated NCS-1) (from UniProt P62166 1-190) (natural protein)
Ka [1]: 118000 M⁻¹ | Kd [1]: 8.47 µM | dH [1]: -3.2 kcal/M | stoichiometry N [1]: 0.508 | Ka [2]: 33200 M⁻¹ | Kd [2]: 30.1 µM | dH [2]: -3 kcal/M | stoichiometry N [2]: 0.676 | fold change of binding with 25 μM Zn^2+ against no Zn^2+ [3]: 2 fold
